Data: paper PMC5036643
Like-named read-outs stand apart in the source and are kept apart here.

Experiments:
Assay in all cases: single-molecule bead assay
[1] = biological target: Microtubules of porcine brain tubulin, tetramethylrhodamine-labelled, taxol-stabilised (porcine) (UniProt P02550)
[2] = biological target: Microtubules of porcine brain tubulin, tetramethylrhodamine-labelled, taxol-stabilised (porcine) (UniProt P02550); remark: listed apart in the source
[3] = biological target: Microtubules of porcine brain tubulin, tetramethylrhodamine-labelled, taxol-stabilised (porcine) (UniProt P02550); remark: listed apart in the source
[4] = biological target: Microtubules of porcine brain tubulin, tetramethylrhodamine-labelled, taxol-stabilised (porcine) (UniProt P02550); remark: listed apart in the source
[5] = biological target: Microtubules of porcine brain tubulin, tetramethylrhodamine-labelled, taxol-stabilised (porcine) (UniProt P02550); remark: listed apart in the source
[6] = biological target: Microtubules of porcine brain tubulin, tetramethylrhodamine-labelled, taxol-stabilised (porcine) (UniProt P02550); remark: listed apart in the source
[7] = biological target: Microtubules of porcine brain tubulin, tetramethylrhodamine-labelled, taxol-stabilised (porcine) (UniProt P02550); remark: listed apart in the source
[8] = biological target: Microtubules of porcine brain tubulin, tetramethylrhodamine-labelled, taxol-stabilised (porcine) (UniProt P02550); remark: listed apart in the source

Conventional kinesin (native, from bovine brain) (complex)
average duration (time between attachment and detachment) [1]: 0.92 s
average duration (time between attachment and detachment) [2]: 0.8 s
average duration (time between attachment and detachment) [3]: 0.69 s
average duration (time between attachment and detachment) [4]: 1.53 s
average duration (time between attachment and detachment) [5]: 1.11 s
average duration (time between attachment and detachment) [6]: 1.01 s
average duration (time between attachment and detachment) [7]: 1.19 s
average duration (time between attachment and detachment) [8]: 1.03 s
